± gives the uncertainty stated by the source.
Assay: self-splicing fitness, log relative to wild type (ln ratio); higher = more splicing; Tetrahymena group I intron in knt gene, E. coli kanamycin selection, DiMSum; sequences stand for … in CUCUCU…GGAGGGAAAAGUUAUCAGGCAUGCACCUGGUAGCUAGUCUUUAAACCAAUAGAUUGCAUCGGUUUAAAAGGCAAGACCGUCAAAUUGCGGGAAAGGGGUCAACAGCCGUUCAGUACCAAGUCUCAGGGGAAACUUUGAGAUGGCCUUGCAAAGGGUAUGGUAAUAAGCUGACGGACAUGGUCCUAACCACGCAGCCAAGUCCUAAGUCAACAGAUCUUCUGUUGAUAUGGAUGCAGUUCACAGACUAAAUGUCGGUCGGGGAAGAUGUAUUCUUCUCAUAAGAUAUAGUCGGACCUCUCCUUAAUGGGAGCUAGCGGAUGAAGUGAUGCAACACUGGAGCCGCUGGGAACUAAUUUGUAUGCGAAAGUAUAUUGAUUAGUUUUGGAGUACUCGUGGUCG
Procedure, shortened: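 Colonies from six replicate transformations of E. coli BL21(DE3) were pooled and amplicon-sequenced on an Illumina HiSeq 2500. The library placed an intron with all eight P1ex-region nucleotides randomised inside the knt kanamycin-resistance gene on pET-22b(+), and cells grew overnight at 37°C or 30°C on LB agar with or without 25 μg/mL kanamycin (plus 100 μg/mL carbenicillin, 50 μM IPTG, 0.2% rhamnose). Fitness is the DiMSum error-weighted combination of wild-type-normalised replicate fold changes, kanamycin versus none.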

| Sequence | self-splicing fitness (ln) (30 °C) | self-splicing fitness (ln) (37 °C) |
| --- | --- | --- |
| CCUCAGCAAUAUUACGCAUG | -1.83 ± 0.092 | -0.467 ± 0.086 |
| UCGAAGCAAUAUUACGAGCU | -3.7 ± 0.47 | -1.24 ± 0.39 |
| GCCCAGCAAUAUUACGGCGC | -3.02 ± 0.17 | -1.87 ± 0.16 |
| UACAAGCAAUAUUACGAGGC | -2.4 ± 0.3 | -1.84 ± 0.28 |
| AUAGAGCAAUAUUACGAUCU | -0.131 ± 0.12 | -0.042 ± 0.17 |
| CCCAAGCAAUAUUACGAUGC | -4.67 ± 0.29 | -2.15 ± 0.24 |
| CGCCAGCAAUAUUACGACUG | -0.729 ± 0.13 | 0.335 ± 0.15 |
| CAUCAGCAAUAUUACGAGCU | -1.92 ± 0.26 | -2.3 ± 0.47 |
| CUUAAGCAAUAUUACGACUA | -1.35 ± 0.35 | – |
| CCGCAGCAAUAUUACGGCAU | -3.29 ± 0.2 | -2.38 ± 0.17 |
| GGACAGCAAUAUUACGGGGA | -2.72 ± 0.16 | -3.05 ± 0.26 |
| AGUUAGCAAUAUUACGAGCG | -0.12 ± 0.1 | 0.237 ± 0.11 |
| AACGAGCAAUAUUACGGCUG | -1.6 ± 0.14 | -0.126 ± 0.16 |
| CCUCAGCAAUAUUACGUUCC | -3.09 ± 0.15 | -2.42 ± 0.33 |
| AUGAAGCAAUAUUACGAUAA | -0.381 ± 0.077 | -0.287 ± 0.085 |
| CCAUAGCAAUAUUACGUAAG | -0.421 ± 0.055 | -0.575 ± 0.07 |
| GGUCAGCAAUAUUACGUUUA | -1.23 ± 0.1 | -0.167 ± 0.1 |
| UUUAAGCAAUAUUACGAGCG | -0.94 ± 0.14 | -0.4 ± 0.17 |
| CACGAGCAAUAUUACGCGAA | -2.93 ± 0.28 | -2.1 ± 0.26 |
| GUAAAGCAAUAUUACGGGAU | -1.62 ± 0.082 | -0.341 ± 0.11 |
| GUGAAGCAAUAUUACGAGCA | 0.204 ± 0.1 | -0.115 ± 0.14 |
| GACGAGCAAUAUUACGAAGA | -3.31 ± 0.27 | – |
| CCAAAGCAAUAUUACGUGCC | -3.77 ± 0.35 | -2.31 ± 0.35 |
| GCUUAGCAAUAUUACGUAGU | -1.2 ± 0.092 | -0.156 ± 0.11 |
| UGAGAGCAAUAUUACGUGUG | -2.9 ± 0.14 | -2.28 ± 0.12 |
| GUACAGCAAUAUUACGGAUA | -2.46 ± 0.12 | -2.36 ± 0.14 |
| CUGUAGCAAUAUUACGUAGU | -4.78 ± 0.36 | -2.65 ± 0.35 |

| Sequence | self-splicing fitness (ln) (30 °C) | self-splicing fitness (ln) (37 °C) |
| --- | --- | --- |
| CUAUAGCAAUAUUACGAAAG | -1.84 ± 0.1 | -1.01 ± 0.12 |
| CUAAAGCAAUAUUACGUACC | – | -2.03 ± 0.46 |
| AAGAAGCAAUAUUACGCACG | -1.26 ± 0.082 | -0.749 ± 0.12 |
| UUAAAGCAAUAUUACGUAAC | -2.67 ± 0.17 | -1.62 ± 0.2 |
| GGGAAGCAAUAUUACGAUUA | -1.56 ± 0.21 | -0.805 ± 0.18 |
| CUUCAGCAAUAUUACGGAGG | -3.09 ± 0.21 | -2.09 ± 0.26 |
| CGCUAGCAAUAUUACGCAUG | -2.04 ± 0.12 | -1.24 ± 0.16 |
| AAUGAGCAAUAUUACGCCGU | – | -2.55 ± 0.26 |
| UCAGAGCAAUAUUACGGCAC | – | -2.09 ± 0.33 |
| CCAGAGCAAUAUUACGUGAG | -0.95 ± 0.061 | -0.428 ± 0.074 |
| AUGCAGCAAUAUUACGAUAU | -1.04 ± 0.054 | 0.0687 ± 0.07 |
| UCUGAGCAAUAUUACGUCGA | -0.0432 ± 0.089 | 0.353 ± 0.12 |
| AAUAAGCAAUAUUACGGUGG | -4.07 ± 0.17 | -2.31 ± 0.13 |
| GCCGAGCAAUAUUACGUGUU | -2.22 ± 0.088 | -1.66 ± 0.1 |
| UCUUAGCAAUAUUACGGUUU | -3.61 ± 0.22 | -1.77 ± 0.2 |
| UUGCAGCAAUAUUACGAAUU | -2.18 ± 0.18 | -0.985 ± 0.19 |
| UAUCAGCAAUAUUACGCUCU | 0.148 ± 0.12 | 0.416 ± 0.13 |
| UAUUAGCAAUAUUACGUCGU | -2.82 ± 0.28 | -3.02 ± 0.32 |
| CCUCAGCAAUAUUACGGGUU | -4.07 ± 0.21 | -2.02 ± 0.15 |
| CUCAAGCAAUAUUACGCGAA | – | -1.79 ± 0.22 |
| ACACAGCAAUAUUACGUUAG | -3.46 ± 0.094 | -2.44 ± 0.1 |
| ACGGAGCAAUAUUACGGCCU | -2.12 ± 0.17 | -1.2 ± 0.21 |
| UUGGAGCAAUAUUACGAGGC | -3.52 ± 0.4 | – |
| CGGUAGCAAUAUUACGGUUC | -2.96 ± 0.3 | -1.93 ± 0.29 |
| UGGGAGCAAUAUUACGUUGC | -3.43 ± 0.4 | -1.53 ± 0.23 |
| GUUUAGCAAUAUUACGUUGA | -3.52 ± 0.43 | -2 ± 0.26 |
| GAUUAGCAAUAUUACGAUCA | -0.826 ± 0.21 | -0.493 ± 0.19 |

| Sequence | self-splicing fitness (ln) (30 °C) | self-splicing fitness (ln) (37 °C) |
| --- | --- | --- |
| UAUGAGCAAUAUUACGUUUC | -3.66 ± 0.4 | -1.67 ± 0.32 |
| UCCGAGCAAUAUUACGGAGU | -3.73 ± 0.21 | -2.74 ± 0.22 |
| AAGUAGCAAUAUUACGUGGC | -2.22 ± 0.18 | -3.29 ± 0.39 |
| CCUGAGCAAUAUUACGUAAG | -3.03 ± 0.19 | -1.6 ± 0.12 |
| CGAAAGCAAUAUUACGUAGA | -2.43 ± 0.092 | -1.49 ± 0.12 |
| AAGAAGCAAUAUUACGACUA | 0.152 ± 0.072 | 0.144 ± 0.1 |
| GUGGAGCAAUAUUACGUCUG | – | -1.75 ± 0.32 |
| ACUGAGCAAUAUUACGGCUG | -1.18 ± 0.16 | -0.804 ± 0.19 |
| CUCGAGCAAUAUUACGUUAC | – | -2.22 ± 0.43 |
| AGUGAGCAAUAUUACGAGAG | -2.1 ± 0.26 | -2.36 ± 0.29 |
| GCUAAGCAAUAUUACGGGCA | -1.52 ± 0.098 | -1.11 ± 0.13 |
| UAGAAGCAAUAUUACGGCAG | -0.136 ± 0.12 | 0.24 ± 0.16 |
| GUUAAGCAAUAUUACGCCAC | -3.63 ± 0.4 | -3.27 ± 0.47 |
| UUAGAGCAAUAUUACGAGAG | -0.212 ± 0.24 | -1.7 ± 0.24 |
| AUUCAGCAAUAUUACGAUGC | -1.27 ± 0.11 | 0.0653 ± 0.13 |
| UGCCAGCAAUAUUACGAACG | 0.252 ± 0.055 | 0.281 ± 0.067 |
| CAUCAGCAAUAUUACGAGAC | -3.95 ± 0.23 | -2.73 ± 0.16 |
| CUCUAGCAAUAUUACGAUGG | -3.61 ± 0.19 | -1.91 ± 0.14 |
| AGUAAGCAAUAUUACGUGAA | -3.24 ± 0.15 | -1.68 ± 0.13 |
| UCUAAGCAAUAUUACGAAUA | – | -1.52 ± 0.32 |
| CUCUAGCAAUAUUACGAAUC | – | -3.69 ± 0.39 |
| UGGCAGCAAUAUUACGUGAG | -0.544 ± 0.047 | 0.438 ± 0.077 |
| CGAUAGCAAUAUUACGUCCG | -1.4 ± 0.1 | -0.5 ± 0.12 |
| AAUAAGCAAUAUUACGAAUA | -1.54 ± 0.13 | -1.62 ± 0.15 |
| CGCUAGCAAUAUUACGCCGU | -0.129 ± 0.17 | -0.719 ± 0.18 |

Reference: the supplement of paper PMC7877785
